# Source: paper PMC5009721
# What was measured:
# [1] = molecular target: T1, RNA polymerase II;TBP (TATA-binding protein);TFIIB;TFIIF (human (HeLa cells);human;human;human, UniProt P24928;P30876;P19387;O15514;P19388;P61218;P62487;P52434;P36954;P62875;P52435;P53 …, |||); assay: single-molecule TIRF colocalization, immobilized Pol II
# [2] = molecular target: T2, RNA polymerase II (human (HeLa cells), UniProt P24928;P30876;P19387;O15514;P19388;P61218;P62487;P52434;P36954;P62875;P52435;P53 …); assay: EMSA
# [3] = molecular target: T1, RNA polymerase II;TBP (TATA-binding …); assay: EMSA
# [4] = molecular target: T1, RNA polymerase II;TBP (TATA-binding …); assay: single-molecule TIRF colocalization, immobilized Pol II; remark: listed apart in the source
# [5] = molecular target: T2, RNA polymerase II; assay: as above
# T1 sequence (P20226 whole entry, chain 13 of 2): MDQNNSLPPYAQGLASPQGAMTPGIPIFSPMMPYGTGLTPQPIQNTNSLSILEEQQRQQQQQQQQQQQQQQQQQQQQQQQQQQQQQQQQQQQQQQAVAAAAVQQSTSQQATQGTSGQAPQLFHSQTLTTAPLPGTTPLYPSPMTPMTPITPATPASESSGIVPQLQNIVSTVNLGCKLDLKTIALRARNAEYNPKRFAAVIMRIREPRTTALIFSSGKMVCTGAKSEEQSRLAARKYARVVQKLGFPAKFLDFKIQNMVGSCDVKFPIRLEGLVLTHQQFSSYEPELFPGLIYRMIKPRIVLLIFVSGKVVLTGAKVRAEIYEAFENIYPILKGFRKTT
# T1 sequence (Q00403 whole entry, chain 14 of 2, further chain): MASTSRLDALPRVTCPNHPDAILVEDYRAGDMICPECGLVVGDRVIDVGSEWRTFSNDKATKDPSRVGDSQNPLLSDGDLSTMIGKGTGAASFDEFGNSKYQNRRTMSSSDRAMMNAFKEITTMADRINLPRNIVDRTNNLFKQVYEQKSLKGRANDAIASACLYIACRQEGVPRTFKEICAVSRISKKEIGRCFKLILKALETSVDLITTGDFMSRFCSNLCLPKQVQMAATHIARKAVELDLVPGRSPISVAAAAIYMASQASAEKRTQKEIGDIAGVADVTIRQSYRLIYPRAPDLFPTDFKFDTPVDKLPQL
binder,measurement,setting,value
18 bp TATA DNA (dsDNA) DNA 1: CGTCCCTTTTATAGCCTG DNA 2: CAGGCTATAAAAGGGACG,binding result,[1],binds
"AdML three-piece heteroduplex (-40 to +37), Cy3/Cy5, quencher (dsDNA) DNA 1: CCTGAGGTTAGTGTGAGTAGTGATTAAAGATAGTGATGAGGACGAACGCGCCCCCACCCCCTTTTATAGCCCCCCTT DNA 2: AAGGGGGGCTATAAAAGGGGGTGGGGGCGCGAAGCAGGAGTAGACTATCTTTAATCACTA DNA 3: CTCACACTAACCTCAGG",binding result,[2],binds
same,binding result,[3],binds
"AdML three-piece heteroduplex (-40 to +37), Cy3/Cy5, no quencher, no biotin (dsDNA) DNA 1: CCTGAGGTTAGTGTGAGTAGTGATTAAAGATAGTGATGAGGACGAACGCGCCCCCACCCCCTTTTATAGCCCCCCTT DNA 2: AAGGGGGGCTATAAAAGGGGGTGGGGGCGCGAAGCAGGAGTAGACTATCTTTAATCACTA DNA 3: CTCACACTAACCTCAGG",binding result,[4],binds
same,binding result,[5],binds
